Measurements: US12123009B2, “Methods and compositions for PPO herbicide tolerance in plants” (Monsanto Technology LLC, priority 2015, dated 2024)

Experiments:
[1] = system: R0 transgenic soybean expressing HemG PPO with targeting peptide; experiment: R0 transgenic soybean herbicide tolerance: percent injury scores; type: in vivo; conditions: seven days
Excerpt: This permitted the side-by-side comparison of seven different HemG PPO enzymes with thirty-seven different targeting peptides using the same promoter and 3′UTR elements for gene expression. These plant transformation constructs were used to transform soybean excised embryos (germplasm A3555) using A. tumefaciens and standard methods known in the art. Four hundred explants were inoculated for each construct resulting in twelve containers per construct. A sterile PPO herbicide solution was used for herbicide tolerance testing. The herbicide solution consisted of 0.3 g of S-3100 in crop oil concentrate (5.0 mL) and 495 mL of deionized water. This was filtered through a 0.45 micron Nalgene® Rapid-Flow™ Tissue Culture Filter Unit and Surfactant-Free Cellulose Acetate membrane filter unit (VWR, Radnor, PA, USA). The resulting sterile solution was shaken before application.
(§1) The plantlets in the non-sprayed containers corresponding to constructs having a score of 2 were transplanted at approximately 7 weeks post transformation and grown as R0 plants using standard methods known in the art. Plantlets corresponding to non-tolerant scores of 0 and 1 were also grown to serve as negative controls. The R0 plants were grown in a greenhouse under long-day nursery conditions (18 hr light at 80° F. then 6 hr dark at 74° F.) for approximately four weeks. At eleven weeks, the R0 plants were sprayed with two passes of the same herbicide solution (0.3 g of 5-3100) described above. Herbicide injury ratings were collected seven days after treatment.
(§2) The results of the herbicide tolerance application at eleven weeks to the R0 plants confirmed the low percent injury rating scores observed in the high-throughput screen at five weeks. Any injury rating of 30% or above was equivalent to non-transgenic soybean injury ratings. A few of the constructs stood out as providing very good tolerance to the herbicide application. […] Data are provided in Table 10, where n.d. indicates the analysis was not conducted.

[2] = system: leaf discs of soybean, non-transgenic or expressing H_N10 (SEQ ID NO: 4); experiment: Leaf disc assay, soybean; type: in vivo; conditions: 1 micromolar
Experimental: A leaf-disc assay was employed for rapid and minimally damaging assessment of herbicide tolerance in transgenic plants expressing a recombinant PPO enzyme. Leaf tissue was sampled from the youngest fully-green leaf of corn and soybean plants. Five 4-mm diameter leaf discs were cut from the leaf samples using a disposable biopsy punch with a plunger (Integra® Miltex®, Inc., York. Pennsylvania) and the leaf discs were placed into one ml of incubation solution (1 mM MES, pH 6.5, 1% w/v sucrose, 1% (v/v) acetone) in 24-well polystyrene plates with lids. For herbicide tolerance analysis, S-3100 was added to the incubation solution to a final concentration of 1 micromolar. Vacuum infiltration was applied and plates of leaf discs were incubated in continuous darkness for one day at room temperature (23-24° C.) followed by one (soybean) or two (corn) days continuous light incubation under overhead fluorescent and incandescent bulbs (520 uE) at 26-27° C. Leaf disc injury was then scored visually on a scale from 0 (lowest injury) to 4 (highest injury), with lower scores indicating better tolerance to the PPO herbicide.

[3] = molecular target: Waterhemp (Amaranthus tuberculata) protoporphyrinogen oxidase (PPO), wild type; experiment: PPO enzyme assay (plastid extract); type: biochemical; conditions: 3 μM protogen; pH 7.4, 30° C.; read-out: S-3100 IC50
R0 soybean plants = experiment: R0 transgenic soybean herbicide tolerance at eleven weeks; type: in vivo; conditions: R0 plants sprayed with S-3100 at eleven weeks, rated seven days after treatment
Experimental: as §1, §2

soybean plantlets = experiment: High-throughput soybean screening for herbicide tolerance (plantlets); type: in vivo, soybean (A3555); design: key: 0 for poor tolerance, high damage, low green coloration; 1 for some tolerance, average damage, moderate green coloration; 2 for good tolerance, low damage, high green coloration; conditions: S-3100 spray five weeks post-transformation, scored day four
Method in brief: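 Soybean embryo explants (A3555) transformed via A. tumefaciens; at five weeks, plantlets sprayed with two passes of S-3100 (0.3 g in 5.0 mL crop oil concentrate plus 495 mL water). After four days with at least 15 h light daily, green coloration versus damage scored 0 (poor), 1 (some) or 2 (good tolerance).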

Molecule: CCOC(=O)COc1ncccc1Oc1cc(-n2c(=O)cc(C(F)(F)F)n(C)c2=O)c(F)cc1Cl [S-3100, ethyl [3-2-chloro-4-fluoro-5-(1-methyl-6-trifluoromethyl-2,4-dioxo-1,2,3,4-tetrahydropyrimidin-3-yl)phenoxy]-2-pyridyloxylacetate]
- percent injury score ([1]; H_N20, TP6): 15%
- percent injury score ([1]; H_N20, TP7): 20%
- percent injury score ([1]; H_N30, TP1): 5%
- percent injury score ([1]; H_N40, TP1): 5%
- percent injury score ([1]; H_N40, TP4): 15%
- percent injury score ([1]; H_N40, TP7): 40%
- percent injury score ([1]; H_N40, TP8): 30%
- percent injury score ([1]; H_N50, TP6): 40%
- percent injury score ([1]; H_N90 (SEQ ID NO:11), TP20): 5%
- percent injury score ([1]; H_N90 (SEQ ID NO:11), TP32): 50%
- percent injury score ([1]; H_N90, TP1): 3%
- percent injury score ([1]; H_N90, TP2): 35%
- percent injury score ([1]; H_N90, TP3): 30%
- percent injury score ([1]; H_N90, TP6): 25%
- percent injury score ([1]; H_N90, TP7): 15%
- percent injury score ([1]; H_N90, TP8): 40%
- percent injury score ([1]; H_N100, TP1): 15%
- percent injury score ([1]; H_N100, TP6): 30%
- percent injury score ([1]; H_N100, TP7): 30%
- leaf disc injury rating (0 lowest to 4 highest injury) ([2]; H_N10, construct 1): zero
- leaf disc injury rating (0 lowest to 4 highest injury) ([2]; H_N10, construct 11): 1.6
- leaf disc injury rating (0 lowest to 4 highest injury) ([2]; non-transgenic): 2.6
- IC50 [3]: 9 nM

B1: H_N90: microbial HemG protoporphyrinogen oxidase, SEQ ID NO:1 (SEQ ID NO:11 lacking start methionine; variants 18, 19) (protein, listed as Enterobacter cloacae)
chain: MKALVLYSTRDGQTHAIASYIASCMKEKAECDVIDLTHGEHVNLTQYDQVLIGASIRYGHFNAVLDKFIKRNVDQLNNMPSAFFCVNLTARKPEKRTPQTNPYVRKFLLATPWQPALCGVFAGALRYPRYRWIDKVMIQLIMRMTGGETDTSKEVEYTDWEQVKKFAEDFAKLSYKKAL
- percent injury score (R0 soybean plants; TP1): 3%
- percent injury score (R0 soybean plants; TP9): 30%
- percent injury score (R0 soybean plants; TP10): 30%
- percent injury score (R0 soybean plants; TP11): 30%
- percent injury score (R0 soybean plants; TP12): 30%
- percent injury score (R0 soybean plants; TP13): 15%
- percent injury score (R0 soybean plants; TP14): 25%
- percent injury score (R0 soybean plants; TP15): 35%
- percent injury score (R0 soybean plants; TP16): 35%
- percent injury score (R0 soybean plants; TP17): 15%
- percent injury score (R0 soybean plants; TP18): 30%
- percent injury score (R0 soybean plants; TP20): 5%
- percent injury score (R0 soybean plants; TP21): 25%
- percent injury score (R0 soybean plants; TP22): 30%
- percent injury score (R0 soybean plants; TP23): 30%
- percent injury score (R0 soybean plants; TP26): 40%
- percent injury score (R0 soybean plants; TP27): 35%
- percent injury score (R0 soybean plants; TP28): 30%
- percent injury score (R0 soybean plants; TP32): 50%
- percent injury score (R0 soybean plants; TP33): 25%
- percent injury score (R0 soybean plants; TP34): 35%
- percent injury score (R0 soybean plants; TP35): 15%
- percent injury score (R0 soybean plants; TP36): 15%
- coloration score (soybean plantlets; TP9): 1
- coloration score (soybean plantlets; TP10): 2
- coloration score (soybean plantlets; TP11): 2
- coloration score (soybean plantlets; TP12): 2
- coloration score (soybean plantlets; TP13): 2
- coloration score (soybean plantlets; TP14): 2
- coloration score (soybean plantlets; TP15): 2
- coloration score (soybean plantlets; TP16): 1
- coloration score (soybean plantlets; TP17): 2
- coloration score (soybean plantlets; TP18): 2
- coloration score (soybean plantlets; TP19): 1
- coloration score (soybean plantlets; TP20): 2
- coloration score (soybean plantlets; TP21): 1
- coloration score (soybean plantlets; TP22): 2
- coloration score (soybean plantlets; TP23): 1
- coloration score (soybean plantlets; TP24): 1
- coloration score (soybean plantlets; TP25): 1
- coloration score (soybean plantlets; TP26): 0
- coloration score (soybean plantlets; TP27): 1
- coloration score (soybean plantlets; TP28): 2
- coloration score (soybean plantlets; TP29): 1
- coloration score (soybean plantlets; TP30): 1
- coloration score (soybean plantlets; TP31): 0
- coloration score (soybean plantlets; TP32): 0
- coloration score (soybean plantlets; TP33): 2
- coloration score (soybean plantlets; TP34): 2
- coloration score (soybean plantlets; TP35): 1
- coloration score (soybean plantlets; TP36): 2
